From the nanobody polyreactivity screen of Harvey et al. (2022)

Assay: yeast display, Sf9 membrane polyspecificity reagent, FACS + sequencing; frameworks hold sequencing errors
In short: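 A synthetic nanobody library was expressed on Saccharomyces cerevisiae BJ5465 by galactose induction for 36–48 hours. The library was stained for 1 hour at 4 °C with 10% biotinylated, detergent-solubilized Sf9 membrane reagent and enriched with streptavidin microbeads before FACS. Low and high (top ~1%) gates were set on anti-HA fluorescence for expression and streptavidin fluorescence for reagent binding, and each polyreactivity label reflects the gate of origin.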

QVQLVESGRGLVQAGGSLRLSCAASGSIFEQNVMGWYRQAPGKERELVAAITRGGSTNYADSVKGRFTISRDNAKNTVYLQMNSLKPEDTAVYYCSKRRWLGPSTLGYWGQGNQVTVSS
polyreactivity (PSR sort gate): low polyreactivity

QVQLVESGGGLVQAGGCLRLSCAASGSIFCVYVMGWYRQEPVKERELVAAITRGASTNYADSVKGRFTISRDNAKNTVYLQMNSLKPEDTAVYYCAARQVSVSGHQYGYWGQGTQVTVSS
polyreactivity (PSR sort gate): low polyreactivity

QVQLVESGGGLVQAGGSLRLSCAASGSTFDYNAMGWYRQAPGKERELVATISSSVGSTYYADSVKGRFTISRDNAKNTVNLQMNSLKPEDTAVYYCNSDYVAYGPEYDYWGQGTQVTVSS
polyreactivity (PSR sort gate): low polyreactivity

QVQLVESGGGLVQAGGSLRLSCAASGRTFLYYAMGWYRQEPGKERELVAAITGRGGSTYNADSVKGLFTISRDNAQNTVYLKMNILKPEDTAVYYCAARDNWIRRDGYWGQGTQVTVSS
polyreactivity (PSR sort gate): high polyreactivity

QVQHVESGGGLVQAGGSLRLSCAASGRTFVLYTMGWYRQAPGKERELVAAISGSGGRTYYADSVKGRFTISRDNAKNTVYLQMNSLKPEDTAVYYCAAYGQGLPLYGYWGQGTQVTVSS
polyreactivity (PSR sort gate): high polyreactivity

QVQLVESGGGLVQAGGSLRLSCAASGSLSYTYGMGCYRQAPGKERELVAAISTSGGNTYYADSVKGRFTISRDNAKNSVYLQMNSLKPEDTAVYYCSAYYGRGSIKRYYYWGQGTQVTVSS
polyreactivity (PSR sort gate): high polyreactivity

QVQLVESGGGLVQAGGSLRLSCAATGFTFRYNAMGWYRQAPGKERELGAAISIGGTTNYADSVKGRFTISRDNAKNTVYLQMNSLKPEDTAVYYCNALGTYFRRYDYWGQGTQVTVSS
polyreactivity (PSR sort gate): low polyreactivity

QVQLVESGGGLVQAGGSLRLSCAASGRIFHVNAMGWYRQAPGKERELVAAISTSGGRTYYADSVKGRFTISRDNAKNTVYLQLNSLKPEVTAVYYCAAVSRAPGLRYDYWGQGTQVTVSS
polyreactivity (PSR sort gate): high polyreactivity

QVQLVESGGGLVQAGGSLRLSCAPSGSIFNYNIGSYRQAPVKERELVAAVSTNYADSVKGRFTISRDNAKNTVYIQMNSLKPADSAVYYCGVTPEKSCDEYDYWGQGTQVTVSS
polyreactivity (PSR sort gate): low polyreactivity

QDQLVESGGVLFQAGGSLRLTCAAYGRILYHYDMGWYRQAPGKERELVAAITRGAGTNYADSVKGRFTISRDNAKNTVYVQMNSLKPEDTAVYYCNADRFIVTRSRRGDYWGQGTQVTVSS
polyreactivity (PSR sort gate): low polyreactivity

QVQHVESGGGLVQAGGSLRLSCAASGSTFDVYALGWDRQAPGKERELVAAISESGSSTYYADSVKGRFTISRDNAKHTVYLQMNSLKPEDTAVYSCNALYYDWHPEYQVIFSYFYYWGQGTQVTVSS
polyreactivity (PSR sort gate): low polyreactivity

QVQLVESGGGLVQAGGSLRLSCAASGSTLPTNAMGWYRQAPGKERELVASNDQSGGSTYADSVKGRFTISRDNAKNTVYLQMNSLKPEDTAVYYCNARDSLRYYTYYFEYYRVGYEYWGQGTQVTVSS
polyreactivity (PSR sort gate): high polyreactivity

QVQLVESGGGLVQAGGSLRLSCAASGSTFAANPMGWYRQAPGKERELVAAITSSGGSTYYADSVKGRFTISRDNAKNTVYLQMNSLKPEDTEVYYCNKDIERYVRIYDSWGQGTQVTVSS
polyreactivity (PSR sort gate): low polyreactivity

QVQLVESAGGLVKAGGSLRLSCAAYGSTFSYYTMGWYRQAPGKERELVAAITRRGDSTYADSVKGRFTISRDNAKNTVYLQMNSLKPEDTAVYYCAADASVGVSGMDYWGQGTQVTVSS
polyreactivity (PSR sort gate): low polyreactivity

QVQLVESGGGLVQAGGSLRLSCAASGFTFRWYTMGWYRQAPGKERELVASIRYGGGSTYYADSVKGRFTISRDNAKNTVYLQMNSLKPEDTAVYYCAAESAWTSQYDYWGVGTQVTVSS
polyreactivity (PSR sort gate): high polyreactivity

QVQLVESGGGLLQAGGSLRLSCAASGLIFGYYAMGWYRQAPGKERELVGAITSSGTSTYYADSVKGRFTISRDNAKNTVYLQMNSLKPEDTAVYYCAAQYIGKKRFNYWGQGTQVTVSS
polyreactivity (PSR sort gate): high polyreactivity

QVQLVESGGGLVQAGGSLRLSCAASGFTFYHNAMGWYRQAPGKERELVAAISSSGDSTYYADSVKGRFTIARDNAKNTVYLQMNSLKPEDTAVYYCNDYFYYLSQYYYYWFNYDYWGQGTQVTVSS
polyreactivity (PSR sort gate): low polyreactivity

QVQLVESGGGLVQAGGSLRLSCAASGITFRHYAMGWYRQAPGKEREFVAAITASGSSTYYADSVKGRFTISRDTAKNTVYLQMNSLKPEDTAVYYCAAAGYKYNSRGDYWGPGTQVTVSS
polyreactivity (PSR sort gate): high polyreactivity

QVQLVESGGGLVQAGGSLRLSCAASGRTFQRNAMGWYRQAPGKERELVAAISGGGSTYYADSVKGRFTISRDNAKNTVYLQMNSLKPEDTAVYYCAARSATRLYYFSRGYDYWGQGTQVTVSS
polyreactivity (PSR sort gate): low polyreactivity

QDQLVESGGGLVQAGGSLRLSCAASGRTFVSYAMGWYRQAPGKERELVAGISWSGDSTYYADSEKGRFTISRDNAKNTVYLQMNSLKPEDTAVYYCAAVQRTDRSAHYSWGQGTQVTLSS
polyreactivity (PSR sort gate): low polyreactivity

QVQLVESGAGLVQAGGSLRLSCAASGSTFESNTMGWYRQAPGKERELVAAISYSGGRTYYADSVKGRFTISRDNAKNTVYLQMNSLKPEDTAVYYCNADLYPYYWYTTGEFGYWGQGTQVTVSS
polyreactivity (PSR sort gate): high polyreactivity

QVQLVESGGGLVQAGGSIRLSCAASGFIFWANAMGWYIQAPGKERELVAAISGSGGRTYYADSVKGRFTISRDNAKNTVYLQMNSLKPEDTAVYYCAAKVSAWKKKSEMNYWGQGTQVTVSS
polyreactivity (PSR sort gate): high polyreactivity

QVQLEESGGGLVQAGGSLRLSCAASGRICAYYTMGWYRQAPGKERELVASITSGSSTNYADSVKGRFTISRDNAKNTVYLQMNSLKPEDTAVYYSAAPRGSYVRTRYRGYVVQSNYWGQGTQVTVSS
polyreactivity (PSR sort gate): high polyreactivity

QVQLVESGGGLVQAGGSLRLSCAASGSTFAANAMGWYRQAPGKERELVAGISESGDRTYADSVKGRFTISRDNPKNTVYLQMNSLKPEDTAVYYCNVGANVYLLYFPSRGGVYDYGYWGQGTQVTVSS
polyreactivity (PSR sort gate): low polyreactivity

QVQLVESGGGLDQAGGSLRLSCAASGFISPWYAMGWYRPAPGKERELDAAIDWSGGSTYYADSVKGRFTISRDNAKNTVYIQMKSLKPEDTAVYYCAARYYTAAVRAGRVRMYSWGQGTQVTVSS
polyreactivity (PSR sort gate): high polyreactivity

QVQLVESGGGLVQAGGSLRLSCAASGRIFYGYTMGWYREAPGIERELVASITIRGSRTYYADSVKGRFTISRDNAKNTVYLQMTSLKPEDTAVYYCAADFVPARTVHRYDYWGQGTQVTVSS
polyreactivity (PSR sort gate): low polyreactivity

QVQLVESGGGLVQAGGSLRLSCAASGSTLNVNAMGWYRQAPGKERELVAAITSGGSTYYADSVKGRFTISRDNAKNTVYLQMNSLKPEDTAVYYCNKRRSWRPTYPFGGSGFYYWGQGTQVTVSS
polyreactivity (PSR sort gate): low polyreactivity

QVQLVESGGGLVQAGGSLRLSCAASGHIFFYYTMGWYRPAPGKERELVAGITIGGSTNYADSVKGRFTISRDNAKNTVYLQMNSLKPEDTAVYYCNVVKYVYIYSYWEYYYWGQGTQVTVSS
polyreactivity (PSR sort gate): low polyreactivity

QVQLVESGGVLVQAGGSLRLTCAASGSNFVTNAMGWYRQAPGKERELVAAISVSGGSTYYADSVKGRFTISRDNAKNTVYLQMNSLKPEDTAVYYCNTVRSPAGHDYWGQGTQVTVSS
polyreactivity (PSR sort gate): low polyreactivity

QVQLVESGGGLVQAGGSLRLSCAASGRIFLSYAMGWYRQAPGKERELVAAITDNGGDTYYADSVKGRFTISRDNAKNTVYLQMNILKPEDTAVYYCAVDGGEFSSYGYWGQGTQVTVSS
polyreactivity (PSR sort gate): low polyreactivity

QFQLVESGRGLVQAGGSLRLSCAASGSIFYAYAMGWYRKAPGKEREFVAVISYSGGSTYYADSVQGRFTISRDKAKNTVYLQMNSLKPEDTAVYYCAARYRAWSGNYWGQGTQVTVSS
polyreactivity (PSR sort gate): high polyreactivity

QVQLVESGGGLVQAGGSLRLSCAASGSTFDGYAMGWYRQAPGKERELVAAITSSDGSTYYADSVKGRFTISRDNAKNTVYLQMNSLKPEDTAVSDCNAEGYDWEFGYWGQGTQVTVSS
polyreactivity (PSR sort gate): low polyreactivity

QVQLVESGGGLVQAGGSLRLSCAASGGIFGHYGMGWYRQAPGQERELVASISWNGGSTYYADSVKGRFTSSRDNAKNTVYLQMNSLKPEDTAVYYCAARAIWLRYVGYTYYYWGQGTQVTVSS
polyreactivity (PSR sort gate): high polyreactivity

QVHHVESGGGLVQAGGSLRLSCAAYGFIFNVYAMGWYRQAPGKERELVAAISTSGSNTYYADSVKGRFTISRDNAKNTVYLQMNSLKPEDTADYYCAAAYRYPSGRSFGYWGQGTQVTVSS
polyreactivity (PSR sort gate): high polyreactivity

QVQLVESGGGLVQAGGSLRLSCAASGSIFRSDPMGWYRQAPGKEREFVASITYRGGRTYYADSVKGRFTISRDNAKNTVSLQLNSLKPEDSAVYYCAARTRAGAWTSKYHDYWGQGTQVTVSS
polyreactivity (PSR sort gate): high polyreactivity

QVQLVESRGGLVQAGGSLRLSCAASGSTFYIYAMGWYRQAPGKERELVAAIDWNDGSTYYADSVKGRFTISRDNAKNTVYLQMNSLKPEDTAVYYCAAAIYIYRDGTYDYWGQGTQVTVSS
polyreactivity (PSR sort gate): high polyreactivity

QVQLVESGGGLVQAGGSLRLSCAASGYIFLGYAMGWYRQAPGKERELVAAISSRGGSTYYADSVKGRFTISRDNAKNTVYLQMNSLKPEDTAVYYCAAYRFSDRAAYGYYDRHYYWGQGTQVTVSS
polyreactivity (PSR sort gate): high polyreactivity

QVQLVESGGGLVQAGGSLRLSCAASGSTLSRYAMGWYRQAPGKERELVATITRRGGSTFYADSVKGRFTISRDNAKNTVYLQMNSLKPEDTAVYYCAVGRLFWGQGTQVTVSS
polyreactivity (PSR sort gate): low polyreactivity

QVQLVESGVGLVQAGGSHRLSCAASGPTFRYNTMGWYRQAPGKERELVASISSGDRTDYADSVKGRFTISRDNAKYTVYLQMNSLKPEDTAVYYCNNKWYSIYYYWGQGTQVTVSS
polyreactivity (PSR sort gate): high polyreactivity

QVQLVESGGGLVQAGGSLRLSCAASGRIFFDYAMGWYRQAPGKERELVADISYNGGSTNYADSVKGRFTISRDNAKNTLYLQMNSLKPEDTADYYCNRAFVPVYDLDYYWGQGTQVTVSS
polyreactivity (PSR sort gate): low polyreactivity

QVQLVESGGGLVQAGGSLRLSCAASGSIFRPNAMGWYRQPPGKERELVALITRGGSTNYADSVKGRFTISRDNAKNTVYLQMNSLKPEDTAVYYCAVDLWYPPVWVRVSEFDYWGQGTQVTVSS
polyreactivity (PSR sort gate): low polyreactivity

QVQLVESGGGLVQAGGSLRLSCAASGSTFSTYAMGWYRQAPGKERELVAVITWRGGSTYYADSVKGRFTISRDNAKNTVYLQMNSLKPEDTAVYYCAAEGESPEYDYWGQGTQVTVSS
polyreactivity (PSR sort gate): low polyreactivity

QVQLVESGGGLVQAGGSLRLSCAASGSIFYIYAMGWYRKAPGKERELVASIDSGDSTNYADSVKGRFTISRDNAKNTVYLQMNSLKPEDTAVYYCNADTYSEITYYLYIGMDYWGQGTQVTVSS
polyreactivity (PSR sort gate): low polyreactivity
